This is an account of results in patent publication US20260365755 (published 2026).

T1: FcγRIIa (human, UniProt P12318)
T1 chain: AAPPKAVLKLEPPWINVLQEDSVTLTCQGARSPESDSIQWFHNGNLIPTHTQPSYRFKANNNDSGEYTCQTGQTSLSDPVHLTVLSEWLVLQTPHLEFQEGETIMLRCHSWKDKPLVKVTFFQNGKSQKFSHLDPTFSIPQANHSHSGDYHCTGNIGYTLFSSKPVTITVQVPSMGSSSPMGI

T2: VEGF165 (human, UniProt P15692)
T2 chain: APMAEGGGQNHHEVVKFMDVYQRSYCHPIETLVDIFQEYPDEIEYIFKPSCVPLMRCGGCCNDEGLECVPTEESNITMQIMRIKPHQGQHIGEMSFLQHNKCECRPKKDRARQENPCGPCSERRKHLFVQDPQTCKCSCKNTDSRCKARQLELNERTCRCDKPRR

B1: Q-SBL-111 (antibody)
chain 1: not shown
chain 2: not shown
chain 3: EVQLVESGGGLVQPGGSLRLSCAASGYTFTNYGMNWVRQAPGKGLEWVGWINTYTGEPTYAADFKRRFTFSLDTSKSTAYLQMNSLRAEDTAVYYCAKYPHYYGSSHWYFDVWGQGTLVTVSSASTKGPSVFPLAPSSKSTSGGTAALGCLVKDYFPEPVTVSWNSGALTSGVHTFPAVLQSSGLYSLSSVVTVPSSSLGTQTYICNVNHKPSNTKVDKKVEPKSCDKTHTCPPCPAPELLGGPSVFLFPPKPKDTLMISRTPEVTCVVVDVSHEDPEVKFNWYVDGVEVHNAKTKPREEQYNSTYRVVSVLTVLHQDWLNGKEYKCKVSNKALPAPIEKTISKAKGQPREPQVCTLPPSRREMTKNQVSLWCLVKGFYPSDIAVEWESNGQPENNYKTTPPVLDSDGSFFLYSKLTVDKSRWQQGNVFSCSVMHEALHNHYTQKSLSLSPGK
chain 4: not shown
B2: Q-SBL-130 (antibody)
chain 1: not shown
chain 2: not shown
chain 3: B1 chain 3 with R362E, D405F
chain 4: not shown
B3: Q-SBL-110 (antibody)
chain 1: not shown
chain 2: not shown
chain 3: B1 chain 3
chain 4: not shown
B4: Q-SBL-117 (antibody)
chain 1: not shown
chain 2: not shown
chain 3: B1 chain 3 with R362K
chain 4: not shown
B5: Q-SBL-129 (antibody)
chain 1: not shown
chain 2: not shown
chain 3: B1 chain 3 with R362E, D405F
chain 4: not shown
B6: Q-SBL-109 (antibody)
chain 1: not shown
chain 2: not shown
chain 3: B1 chain 3
chain 4: not shown
B7: Q-SBL-135 (antibody)
chain 1: not shown
chain 2: not shown
chain 3: B1 chain 3 with R362E, K415V
chain 4: not shown
B8: Q-SBL-115 (antibody)
chain 1: not shown
chain 2: not shown
chain 3: B1 chain 3 with R362E, E363R
chain 4: not shown
B9: Q-SBL-114 (antibody)
chain 1: not shown
chain 2: not shown
chain 3: B1 chain 3 with R362E, D405H
chain 4: not shown
B10: Q-SBL-127 (antibody)
chain 1: not shown
chain 2: not shown
chain 3: B1 chain 3 with R362E, D405F
chain 4: not shown
B11: Q-SBL-136 (antibody)
chain 1: not shown
chain 2: not shown
chain 3: B1 chain 3 with R362E, K415T
chain 4: not shown
B12: Q-SBL-137 (antibody)
chain 1: not shown
chain 2: not shown
chain 3: B1 chain 3 with R362E, K415S
chain 4: not shown
B13: Q-SBL-116 (antibody)
chain 1: not shown
chain 2: not shown
chain 3: B1 chain 3 with R362K
chain 4: not shown
B14: Q-SBL-101 (antibody)
chain 1: not shown
chain 2: not shown
chain 3: B1 chain 3
chain 4: not shown
B15: Q-SBL-105 (antibody)
chain 1: not shown
chain 2: not shown
chain 3: B1 chain 3 with E363R
chain 4: not shown
B16: Q-SBL-113 (antibody)
chain 1: not shown
chain 2: not shown
chain 3: B1 chain 3
chain 4: not shown
B17: Q-SBL-131 (antibody)
chain 1: not shown
chain 2: not shown
chain 3: B1 chain 3 with R362E, D405F
chain 4: not shown
B18: Q-SBL-104 (antibody)
chain 1: not shown
chain 2: not shown
chain 3: B1 chain 3 with D405H
chain 4: not shown
B19: Q-SBL-112 (antibody)
chain 1: not shown
chain 2: not shown
chain 3: B1 chain 3
chain 4: not shown
B20: Q-SBL-102 (antibody)
chain 1: not shown
chain 2: not shown
chain 3: B1 chain 3 with R362E, D405H
chain 4: not shown
B21: Q-SBL-103 (antibody)
chain 1: not shown
chain 2: not shown
chain 3: B1 chain 3 with R362E, E363R
chain 4: not shown
B22: Q-SBL-106 (antibody)
chain 1: not shown
chain 2: not shown
chain 3: B1 chain 3 with R362E, E363R, D405H
chain 4: not shown

Where a chain is given by its changes, count along the chain named.

Chain of FcγRIIIa (P08637 17-208): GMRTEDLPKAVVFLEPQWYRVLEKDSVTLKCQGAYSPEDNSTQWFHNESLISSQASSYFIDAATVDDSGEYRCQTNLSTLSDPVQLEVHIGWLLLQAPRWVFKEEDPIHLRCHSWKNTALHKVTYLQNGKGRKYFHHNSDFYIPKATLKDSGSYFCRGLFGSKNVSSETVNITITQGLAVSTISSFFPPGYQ

The first test has as its target T1, FcγRIIa. Description: BLI.
By Kd is commonly meant the constant that tells how readily two partners part at equilibrium. B1 returned a Kd of 2040 nM.

On to B2, for which binding was characterised by a dissociation constant (Kd) of 1720 nM.

Molecule B3 gave a Kd of 2290 nM.

As to B4, the Kd came to 2550 nM.

Turning to B5, the Kd is 1670 nM.

Take B6: the Kd came out at 2200 nM.

Regarding B7, the affinity, expressed as Kd, was 1380 nM.

B8 yielded a Kd of 1970 nM.

Take B9: the Kd worked out at 1860 nM.

Regarding B10, binding was characterised by a dissociation constant (Kd) of 1630 nM.

The molecule B11 had a Kd of 1970 nM.

Molecule B12 yielded a Kd of 2120 nM.

In turn, B13 came in with a Kd of 2340 nM. This Kd and that of the molecule before are within 1.5-fold of each other.

As for B14, binding was characterised by a dissociation constant (Kd) of 2460 nM.

Consider B15, for which binding was characterised by a dissociation constant (Kd) of 1910 nM.

B16 came in with a Kd of 2140 nM.

Regarding B17, the dissociation constant (Kd) was determined as 1620 nM.

In turn, B18 returned a Kd of 1870 nM.

B19 showed a Kd of 2020 nM.

In turn, B20 had a Kd of 1700 nM.

B21 came in with a Kd of 1130 nM.

The target in another test is FcRn (human, UniProt P55899). The test is described as follows: BLI.
Chain of FcRn (P55899 24-297, chain 1 of 2): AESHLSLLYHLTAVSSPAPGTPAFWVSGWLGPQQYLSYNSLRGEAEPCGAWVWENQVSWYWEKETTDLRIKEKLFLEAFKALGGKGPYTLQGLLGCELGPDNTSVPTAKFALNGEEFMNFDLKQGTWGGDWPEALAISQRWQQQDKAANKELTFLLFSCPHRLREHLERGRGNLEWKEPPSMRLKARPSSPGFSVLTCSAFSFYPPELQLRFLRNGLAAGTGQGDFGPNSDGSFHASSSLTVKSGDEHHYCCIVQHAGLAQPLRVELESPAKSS
Chain of FcRn (chain, as listed by the source, chain 2 of 2): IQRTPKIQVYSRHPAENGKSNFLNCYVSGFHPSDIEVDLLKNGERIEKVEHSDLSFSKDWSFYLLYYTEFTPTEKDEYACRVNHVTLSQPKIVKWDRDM
For the molecule B1, binding was characterised by a dissociation constant (Kd) of 690 nM. This counts as sub-micromolar.

Consider B2, for which binding was put at a Kd of 740 nM. This Kd and that of the molecule before are within 1.5-fold of each other.

Regarding B3, the Kd was determined as 610 nM. This Kd and that of the molecule before are within 1.5-fold of each other.

B5 had a dissociation constant Kd of 700 nM.

B6 had a Kd of 640 nM. The Kd values of the last two molecules are within 1.5-fold of each other.

For the molecule B7, the affinity, expressed as Kd, was 650 nM.

B8 yielded a Kd of 690 nM.

As to B10, binding was put at a Kd of 750 nM.

In the case of B11, the affinity, expressed as Kd, was 620 nM. This Kd and that of the molecule before are within 1.5-fold of each other.

Regarding B12, the Kd was 580 nM.

With B13, binding was put at a Kd of 650 nM.

B14 yielded a Kd of 730 nM.

In turn, B15 yielded a Kd of 710 nM.

As to B16, the Kd was 690 nM.

The molecule B17 yielded a Kd of 670 nM. The Kd values of the last two molecules are within 1.5-fold of each other.

In turn, B18 displayed a Kd of 680 nM.

In turn, B19 registered a Kd of 720 nM. The Kd values of the last two molecules are within 1.5-fold of each other.

B22 registered a Kd of 680 nM.

Molecule B20 registered a Kd of 710 nM.

The next test addresses FcγRIIIa (human, UniProt P08637). The test is described as follows: BLI.
Consider B1, for which the Kd worked out at 490 nM. This lies in the sub-micromolar range.

As for B2, the Kd came to 290 nM.

B3 displayed a Kd of 570 nM. This Kd lies about 2-fold higher than the previous one.

B4 had a Kd of 360 nM.

For the molecule B5, the Kd is 290 nM.

Regarding B6, binding was characterised by a dissociation constant (Kd) of 340 nM.

Regarding B7, binding was characterised by a dissociation constant (Kd) of 300 nM.

In turn, B8 returned a Kd of 290 nM.

For B9, the affinity, expressed as Kd, was 230 nM.

Molecule B10 registered a Kd of 230 nM.

Molecule B11 yielded a Kd of 230 nM.

The molecule B12 yielded a Kd of 380 nM. This Kd lies about 1.7-fold higher than the previous one.

Molecule B13 registered a Kd of 370 nM.

As for B14, the Kd was found to be 500 nM.

In the case of B15, the affinity, expressed as Kd, was 430 nM.

As for B16, binding was put at a Kd of 600 nM.

Consider B17, for which the Kd worked out at 330 nM.

B19 gave a Kd of 600 nM. This Kd lies about 1.8-fold higher than the previous one.

Turning to B20, the Kd came out at 420 nM.

Take B21: binding was put at a Kd of 220 nM.

The target of another test is C1q (human, UniProt P02745). The test is described as follows: BLI.
Chain of C1q (P02745 23-245, chain 1 of 3): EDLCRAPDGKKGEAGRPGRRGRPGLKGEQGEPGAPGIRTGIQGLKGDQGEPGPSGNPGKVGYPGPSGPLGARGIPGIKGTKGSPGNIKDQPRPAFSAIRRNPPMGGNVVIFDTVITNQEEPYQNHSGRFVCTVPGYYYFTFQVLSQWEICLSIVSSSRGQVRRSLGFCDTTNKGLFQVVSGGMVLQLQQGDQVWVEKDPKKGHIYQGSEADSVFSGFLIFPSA
Chain of C1q (P02746 28-253, chain 2 of 3, further chain): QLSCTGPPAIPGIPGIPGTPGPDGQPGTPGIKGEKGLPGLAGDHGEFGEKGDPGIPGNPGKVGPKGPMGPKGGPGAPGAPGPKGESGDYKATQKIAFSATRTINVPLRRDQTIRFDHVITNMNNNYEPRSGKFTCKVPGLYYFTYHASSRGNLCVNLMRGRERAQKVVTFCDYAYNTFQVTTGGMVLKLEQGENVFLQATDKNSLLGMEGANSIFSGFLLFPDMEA
Chain of C1q (P02747 29-245, chain 3 of 3, further chain): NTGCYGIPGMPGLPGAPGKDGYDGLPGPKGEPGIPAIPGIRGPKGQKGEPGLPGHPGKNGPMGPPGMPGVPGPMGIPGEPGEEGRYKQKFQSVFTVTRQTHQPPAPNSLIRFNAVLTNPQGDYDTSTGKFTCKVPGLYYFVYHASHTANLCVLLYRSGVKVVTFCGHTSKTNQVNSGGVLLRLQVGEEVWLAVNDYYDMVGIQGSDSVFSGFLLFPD
In the case of B1, the Kd is 30 nM.

The molecule B2 came in with a Kd of 17 nM.

In turn, B4 gave a Kd of 40 nM.

Regarding B5, the affinity, expressed as Kd, was 16 nM. Against the preceding molecule, the Kd is about 2.5-fold lower.

The molecule B6 came in with a Kd of 28 nM. This Kd lies about 1.8-fold higher than the previous one.

In the case of B8, the Kd was 18 nM.

Consider B9, for which the Kd came to 18 nM.

Take B10: the Kd is 18 nM.

On to B12, for which binding was put at a Kd of 24 nM.

Molecule B13 yielded a Kd of 33 nM.

With B14, the Kd turned out to be 36 nM.

The molecule B16 yielded a Kd of 36 nM.

B17: binding was put at a Kd of 16 nM.

As for B19, the Kd amounted to 32 nM.

The molecule B20 registered a Kd of 40 nM.

As to B21, the affinity, expressed as Kd, was 40 nM.

The target in another test is T2, VEGF165. The test is described as follows: ELISA.
A word on the EC50: it is the concentration giving half of the maximal effect. High values mean a less potent agent, low ones a more potent agent. With B3, a half-maximal response (EC50) required 0.168 nM.

B5 had an EC50 of 0.17 nM. This EC50 and that of the molecule before are within 1.5-fold of each other.

B16 came in with an EC50 of 0.154 nM.

For the molecule B19, the EC50 came out at 0.149 nM.
